From the supplement of paper PMC9732359
± gives the uncertainty stated by the source.

experiment: protein stability index of a GFP-peptide fusion (yeast GPS) (PSI 1-4); higher = more stable; sorted into four equal gates, so the index is relative within each strain; details: pdr5∆
Method in brief: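 Yeast carrying a pooled library were grown to mid-log phase in leucine-free medium. Each library plasmid expresses Cherry and has a tiled 17-residue yeast protein peptide fused downstream of GFP. Cells were sorted into four equal gates by GFP/Cherry ratio, and plasmids from each gate were PCR-amplified, Illumina-sequenced and assigned to strains by barcode. Summing, across gates, the read frequency times the gate number gave each peptide's protein stability index.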

Row | Sequence | protein stability index
1 | RTHFKRMRFPPFDDDEP [PRP8] | 3.03 ± 0.047
2 | RTIGIAVDHRRQNRNQE [RPL13A] | 2.7 ± 0.13

same assay, conditions: san1∆

Row | Sequence | protein stability index
3 | QRDFRKHGAVHMSTYLK [RPL21B] | 2.48 ± 0.054
4 | QRETMKERKLRENIAML [SMC1] | 3.04 ± 0.12
5 | QRHIAVGKQIVNIPSFM [RPS9A] | 2.89 ± 0.082
6 | QRIIADLSADKPTSPFI [SRB8] | 2.82 ± 0.043
7 | QRQERLRQQQQQQDQPE [RPN10] | 2.86 ± 0.088
8 | QRSNISTAIKSLVALGI [CDC53] | 2.82 ± 0.049
9 | QRVCLRSDSYMLHKVLE [RPT6] | 2.81 ± 0.067
10 | QSESRQKRQLHDISKTE [SNU114] | 3.13 ± 0.073
11 | QSKKLIEEKLSSFSKKT [YIL149C/MLP2] | 2.98 ± 0.053
12 | QSKLKDVVEYLDKVINK [RPN8] | 2.63 ± 0.073
13 | QSLDTIGGSDAAFEKRY [RPO21] | 3.37 ± 0.049
14 | QSVYNDEKLKTEKLKND [SRB8] | 3.21 ± 0.18
15 | QSYGGRPYGVGLLIIGY [PRE5] | 2.83 ± 0.07
16 | QTANEKHITVRLTAKRL [SRP14] | 2.94 ± 0.082
17 | QTAVTCESCSTVLCTPT [RPS27B] | 2.06 ± 0.071
18 | QTLLQRSEDPAGLGKTN [YGR119C/NUP57] | 3.27 ± 0.078
19 | QTLYTGDKVVVTIWYRA [SSN3] | 1.25 ± 0.13
20 | QVVGPFHTSFSAVVGPN [SMC4] | 2.78 ± 0.055
21 | QWSMVAQRLQISDYQQL [SWI1] | 1.59 ± 0.12
22 | QWYTLQSQLNVTLSQLV [MED8] | 1.85 ± 0.075
23 | RAFLIEEQKIVKKVVKE [RPL34A] | 2.99 ± 0.12
24 | RAIILERNAAYQKEYET [RPL7A] | 2.62 ± 0.05
25 | RAKALGIKVTNPKGRLA [RPL32] | 2.87 ± 0.23
26 | RAPQQSVLQLFQSVQLN [SMC2] | 2.24 ± 0.051
27 | RASIEYYVGQVMRNNES [DIS3] | 3.21 ± 0.053

Row | Sequence | protein stability index
28 | RAYRIIRAHQTELTHHL [QCR7] | 3.01 ± 0.07
29 | RDGGLRLGEMERDCVIA [RET1] | 2.54 ± 0.13
30 | RDKKEKKQAQKQTKLRK [SMB1] | 3.25 ± 0.076
31 | RDLSEASVYPEYALPKT [RPS26A] | 3.16 ± 0.045
32 | REGLIDTAVKTAETGYI [RPO21] | 1.23 ± 0.18
33 | REKRDRTHFKRMRFPPF [PRP8] | 2.22 ± 0.098
34 | RENMICKIDFQKNFMDQ [RRI2] | 3.19 ± 0.067
35 | RERRAALTDFERFQVMV [RPL14A] | 1.41 ± 0.13
36 | RESFEDNVVRFLNEARD [RPO21] | 3.04 ± 0.16
37 | RETDPLVYNMTSFEQGE [RPT4] | 3.23 ± 0.18
38 | RETLVKTWEKVTLDFGN [SMC2] | 1.83 ± 0.28
39 | RFAFSVIWELDDSANIV [DIS3] | 3.01 ± 0.063
40 | RFISDLLWLVLIHPENF [SWI1] | 1.86 ± 0.2
41 | RFKSQFLYVLIPAGIYW [QCR8] | 2.07 ± 0.12
42 | RFKYAPGTIVLYAERVQ [RPS3] | 1.56 ± 0.1
43 | RFNVVKVSAAAGKANKQ [RPS11A] | 2.92 ± 0.18
44 | RFVLSDDYSNLKREERQ [SMC3] | 2.43 ± 0.093
45 | RGDSTETSSFGSMFSGD [RRI1] | 3.35 ± 0.053
46 | RGHRIRREFKQYSLERN [PRP8] | 2.81 ± 0.23
47 | RGHVLQFEWHQNSLLTN [SNF2] | 3.11 ± 0.056
48 | RGIPRISTLFQRDRHTL [PRP8] | 2.08 ± 0.079
49 | RGKNEIIQNAQRDAVTL [RPO21] | 3.23 ± 0.064
50 | RGQQVENPTDNFIIWIN [GRR1] | 2.59 ± 0.063
51 | RGSLDSEHVFDYFFYFL [NUT1] | 2.71 ± 0.041
52 | RGSSSLYTLVINDAGKA [RPL38] | 1.17 ± 0.13

Row | Sequence | protein stability index
53 | RHFWGLRVRGQHTKTTG [RPS18A] | 1.77 ± 0.12
54 | RHGSVVEASRRRRSSTN [MED1] | 3.26 ± 0.045
55 | RIARALKQEGAANKTVV [RPL18A] | 2.95 ± 0.15
56 | RIGTIVHKERHDGGFDL [RPS4A] | 1.65 ± 0.17
57 | RIMEKSVILSVISMFVL [YML031W/NDC1] | 1.17 ± 0.11
58 | RIMSRNFYLKRFISDLL [SWI1] | 2.08 ± 0.095
59 | RIQNRVKLGLNSKMPTR [PRP8] | 2.74 ± 0.13
60 | RIVNHKTKLWGFKWLNK [LIN1] | 2.87 ± 0.3
61 | RKDENQFSYVDSSMTTV [AAR2] | 3 ± 0.033
62 | RKILKKTFKNPKYESLK [RPN5] | 3.18 ± 0.094
63 | RKKRTRRLKRKRRKVRA [RPL41A] | 3.15 ± 0.12
64 | RKLGLLGDKEDEKQSAK [MTW1] | 2.94 ± 0.1
65 | RKMTTDDDINWQELARS [RPT5] | 3.16 ± 0.097
66 | RKQRVKKKTKKELELER [SWI1] | 3.56 ± 0.12
67 | RKSYKNQIADLSGKFST [ROX3] | 2.84 ± 0.06
68 | RKVENIRTILVNIHHLL [MED7] | 1.5 ± 0.087
69 | RKVREQEELKKRQELEE [MED2] | 1.96 ± 0.1
70 | RLFNVVVQDSQTATQLL [SMC2] | 2.61 ± 0.1
71 | RLGEMERDCVIAYGASQ [RET1] | 2.55 ± 0.13
72 | RLGLIPLQSMDIEQLEY [RPB3] | 2.91 ± 0.088
73 | RLILLLNHRNKNQHRAA [RMP1] | 1.34 ± 0.12
74 | RLISSKMPGGFTITVAR [FAS2] | 1.52 ± 0.073
75 | RLLPNGSNKAQISIIDI [YML031W/NDC1] | 2.6 ± 0.048
76 | RLRQGAAKLRTLDYAER [RPL2A] | 1.56 ± 0.12
77 | RLYLKDQTNHIESDSIL [ECM29] | 2.96 ± 0.048

Row | Sequence | protein stability index
78 | RNSPFWWTNSHHDGKLW [PRP8] | 2.68 ± 0.041
79 | RNSWNFALIDYFYDLDV [BRN1] | 1.33 ± 0.093
80 | RPTEKPVGRELDPISLI [RPN13] | 3.33 ± 0.08
81 | RQKNVIHRAARPTRPDK [RPL15A] | 3.27 ± 0.066
82 | RQMNLVITLLNNSSITL [YCS4] | 1.19 ± 0.08
83 | RQPANTKIGAKRIHSVR [RPS8A] | 2.74 ± 0.07
84 | RQSSVGSLNATNFSPTP [SNF2] | 2.54 ± 0.044
85 | RQTGPAKINEVYNNSKD [NSL1] | 2.93 ± 0.073
86 | RRERRLIFGTIASKMSL [RPT3] | 2.36 ± 0.048
87 | RRIKEAEENLKKRIRLP [YIL149C/MLP2] | 1.88 ± 0.12
88 | RRRTYRAHGRINKYESS [RPL17A] | 1.9 ± 0.13
89 | RSCVSNSNENGTLERIK [RPN4] | 2.54 ± 0.065
90 | RSDGMGNVLLNATVVDS [YLR335W/NUP2] | 3.29 ± 0.099
91 | RSEEEVTKLNVLVDEIK [YIL149C/MLP2] | 3.24 ± 0.059
92 | RSILQSLNPALQEKIST [SWI1] | 2.72 ± 0.1
93 | RSISKELIVSEEIPINS [SIR3] | 2.07 ± 0.07
94 | RSISWAPSIGRWYQLIA [YGL100W/SEH1] | 1.16 ± 0.12
95 | RSKSSHKNERRVLEIQT [SKI6] | 3.23 ± 0.084
96 | RSLRATAEERVGRRAAN [RPL15A] | 3.03 ± 0.2
97 | RSLVREIAGLSPYERRL [RPL36A] | 2.78 ± 0.12
98 | RSNDPQSSLSKVDIPLE [NUT2] | 3.27 ± 0.056
99 | RSQDVRSTDRDRVKVIE [CSL4] | 3.27 ± 0.12
100 | RTAPKSDNVYLKLLVKL [RPL18A] | 2.7 ± 0.089
101 | RTHFKRMRFPPFDDDEP [PRP8] | 2.91 ± 0.044
102 | RTIGIAVDHRRQNRNQE [RPL13A] | 3.14 ± 0.16

same assay, conditions: ubr1∆

Row | Sequence | protein stability index
103 | QRDFRKHGAVHMSTYLK [RPL21B] | 2.8 ± 0.038
